From US10215752 (MIT, dated 2019)
Like-named read-outs stand apart in the source and are kept apart here.

B1: His-tag Jun (P05412) (other, human)
chain: MTAKMETTFYDDALNASFLPSESGPYGYSNPKILKQSMTLNLADPVGSLKPHLRAKNSDLLTSPDVGLLKLASPELERLIIQSSNGHITTTPTPTQFLCPKNVTDEQEGFAEGFVRALAELHSQNTLPSVTSAAQPVNGAGMVAPAVASVAGGSGSGGFSASLHSEPPVYANLSNFNPGALSSGGGAPSYGAAGLAFPAQPQQQQQPPHHLPQQMPVQHPRLQALKEEPQTVPEMPGETPPLSPIDMESQERIKAERKRMRNRIAASKCRKRKLERIARLEEKVKTLKAQNSELASTANMLREQVAQLKQKVMNHVNSGCQLMLTQQLQTFHHHHHH
notes: Capture protein, expressed on the chip by cell-free synthesis with a His-tag
B2: His-tag CDK4 (P11802) (enzyme, human)
chain: MATSRYEPVAEIGVGAYGTVYKARDPHSGHFVALKSVRVPNGGGGGGGLPISTVREVALLRRLEAFEHPNVVRLMDVCATSRTDREIKVTLVFEHVDQDLRTYLDKAPPPGLPAETIKDLMRQFLRGLDFLHANCIVHRDLKPENILVTSGGTVKLADFGLARIYSYQMALTPVVVTLWYRAPEVLLQSTYATPVDMWSVGCIFAEMFRRKPLFCGNSEADQLGKIFDLIGLPPEDDWPRDVSLPRGAFPPRGPRPVQSVVPEMEESGAQLLLEMLTFNPHKRISAFRALQHSYLHKDEGNPEHHHHHH
notes: as for B1
B5: His-tag p16 (P42771) (other, human)
chain: MEPAAGSSMEPSADWLATAAARGRVEEVRALLEAGALPNAPNSYGRRPIQVMMMGSARVAELLLLHGAEPNCADPATLTRPVHDAAREGFLDTLVVLHRAGARLDVRDAWGRLPVDLAEELGHRDVARYLRAAAGGTRGSNHARIDAAEGPSDIPDHHHHHH
notes: as for B1
B6: Jun (P05412) without His-tag (other, human, UniProt P05412 1-331, looked up)
chain: MTAKMETTFYDDALNASFLPSESGPYGYSNPKILKQSMTLNLADPVGSLKPHLRAKNSDLLTSPDVGLLKLASPELERLIIQSSNGHITTTPTPTQFLCPKNVTDEQEGFAEGFVRALAELHSQNTLPSVTSAAQPVNGAGMVAPAVASVAGGSGSGGFSASLHSEPPVYANLSNFNPGALSSGGGAPSYGAAGLAFPAQPQQQQQPPHHLPQQMPVQHPRLQALKEEPQTVPEMPGETPPLSPIDMESQERIKAERKRMRNRIAASKCRKRKLERIARLEEKVKTLKAQNSELASTANMLREQVAQLKQKVMNHVNSGCQLMLTQQLQTF
notes: also called Jun (noHis)

Legend:
[1] = molecular target: T1, Fos (P01100) without His-tag (human, UniProt P01100 1-380); assay: label-free nIR fluorescence (1045 nm) of SWNT/chitosan Ni-NTA array spots; His-tag capture protein expressed on the spot, then cell-free expressed analyte protein without His-tag added; pair label = capture-analyte
T1 construct: also called Fos (noHis)
T1 sequence (P01100 whole entry, one chain of several): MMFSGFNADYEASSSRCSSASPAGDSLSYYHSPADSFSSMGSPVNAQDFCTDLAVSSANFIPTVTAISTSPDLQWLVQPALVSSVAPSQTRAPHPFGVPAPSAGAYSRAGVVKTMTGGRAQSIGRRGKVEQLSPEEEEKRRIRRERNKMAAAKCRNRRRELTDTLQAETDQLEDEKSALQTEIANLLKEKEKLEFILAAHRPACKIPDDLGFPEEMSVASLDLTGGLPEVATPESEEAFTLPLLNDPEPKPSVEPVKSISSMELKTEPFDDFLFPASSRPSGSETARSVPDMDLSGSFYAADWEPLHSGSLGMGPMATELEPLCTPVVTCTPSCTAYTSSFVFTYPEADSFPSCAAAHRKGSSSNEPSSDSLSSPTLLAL

[2] = molecular target: T1, Fos (P01100) without His-tag; assay: nIR fluorescence spectra (1000-1100 nm) of one SWNT/chitosan Ni-NTA array spot before expression, after the His-tag capture protein and after the analyte protein without His-tag; pair label = capture-analyte
[3] = molecular target: B6; assay: label-free nIR fluorescence (1045 nm) of SWNT/chitosan Ni-NTA array spots; His-tag capture protein expressed on the spot, then analyte protein without His-tag added; pair label = capture-analyte
His-tag Jun (P05412) [4] = molecular target: B1; assay: nIR fluorescence spectra (1000-1100 nm) of one SWNT/chitosan Ni-NTA array spot before expression, after the His-tag capture protein and after the analyte protein without His-tag; pair label = capture-analyte
His-tag p16 (P42771) = molecular target: B5; assay: change of the Ni2+-SWNT distance on adding the analyte, calculated by the Förster equation from nIR fluorescence of the SWNT/chitosan Ni-NTA array
His-tag Fos (P01100) [5] = molecular target: T2, His-tag Fos (P01100) (human, UniProt P01100 1-380); assay: nIR fluorescence spectra (1000-1100 nm) of one SWNT/chitosan Ni-NTA array spot before expression, after the His-tag capture protein and after the analyte protein without His-tag; pair label = capture-analyte
T2 construct: Capture protein, expressed on the chip by cell-free synthesis with a His-tag
T2 sequence (P01100 other isoform, or with tags, fused parts or gaps limits assumed): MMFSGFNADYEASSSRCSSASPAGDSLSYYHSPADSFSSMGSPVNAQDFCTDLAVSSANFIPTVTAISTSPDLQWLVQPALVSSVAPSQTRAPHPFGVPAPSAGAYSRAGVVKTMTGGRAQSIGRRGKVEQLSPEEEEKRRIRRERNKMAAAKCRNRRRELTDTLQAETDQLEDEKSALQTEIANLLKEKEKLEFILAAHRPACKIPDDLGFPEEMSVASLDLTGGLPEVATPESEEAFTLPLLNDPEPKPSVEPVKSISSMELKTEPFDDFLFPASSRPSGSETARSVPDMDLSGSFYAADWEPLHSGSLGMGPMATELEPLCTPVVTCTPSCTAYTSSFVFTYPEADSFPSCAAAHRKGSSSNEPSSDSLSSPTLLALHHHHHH

His-tag Jun (P05412) [6] = molecular target: B1; assay: as above; remark: listed apart in the source
His-tag Fos (P01100) [7] = molecular target: T2, His-tag Fos (P01100); assay: as above; remark: listed apart in the source
His-tag CDK4 (P11802) = molecular target: B2; assay: change of the Ni2+-SWNT distance on adding the analyte, calculated by the Förster equation from nIR fluorescence of the SWNT/chitosan Ni-NTA array
[8] = molecular target: T1, Fos (P01100) without His-tag; assay: label-free nIR fluorescence (1045 nm) of SWNT/chitosan Ni-NTA array spots; His-tag capture protein expressed on the spot, then analyte protein without His-tag added; pair label = capture-analyte
[9] = molecular target: B6; assay: nIR fluorescence spectra (1000-1100 nm) of one SWNT/chitosan Ni-NTA array spot before expression, after the His-tag capture protein and after the analyte protein without His-tag; pair label = capture-analyte
His-tag Fos (P01100) [10] = molecular target: T2, His-tag Fos (P01100); assay: change of the Ni2+-SWNT distance on adding the analyte, calculated by the Förster equation from nIR fluorescence of the SWNT/chitosan Ni-NTA array

B1
binding result [1]: binds

B2
binding result [2]: no binding
binding result [3]: no binding

B3: CDK4 (P11802) without His-tag (enzyme, human, UniProt P11802 1-303, looked up)
chain: MATSRYEPVAEIGVGAYGTVYKARDPHSGHFVALKSVRVPNGGGGGGGLPISTVREVALLRRLEAFEHPNVVRLMDVCATSRTDREIKVTLVFEHVDQDLRTYLDKAPPPGLPAETIKDLMRQFLRGLDFLHANCIVHRDLKPENILVTSGGTVKLADFGLARIYSYQMALTPVVVTLWYRAPEVLLQSTYATPVDMWSVGCIFAEMFRRKPLFCGNSEADQLGKIFDLIGLPPEDDWPRDVSLPRGAFPPRGPRPVQSVVPEMEESGAQLLLEMLTFNPHKRISAFRALQHSYLHKDEGNPE
notes: also called CDK4 (noHis)
binding result (His-tag Jun (P05412) [4]): no binding
Δd2 (His-tag p16 (P42771)): 0.0517 nm
binding result (His-tag Fos (P01100) [5]): no binding

B4: p16 (P42771) without His-tag (other, human, UniProt P42771 1-156, looked up)
chain: MEPAAGSSMEPSADWLATAAARGRVEEVRALLEAGALPNAPNSYGRRPIQVMMMGSARVAELLLLHGAEPNCADPATLTRPVHDAAREGFLDTLVVLHRAGARLDVRDAWGRLPVDLAEELGHRDVARYLRAAAGGTRGSNHARIDAAEGPSDIPD
notes: also called p16 (noHis)
binding result (His-tag Jun (P05412) [6]): no binding
binding result (His-tag Fos (P01100) [7]): no binding
Δd2 (His-tag CDK4 (P11802)): 0.0634 nm

B5
binding result [8]: no binding
binding result [9]: no binding

B6
Δd2 (His-tag Fos (P01100) [10]): 0.0236 nm
